Our source for the Net GTP gamma S-stimulated forskolin binding values is patent publication US20020103147A1.

The target of this assay is transgene murine adenylylcyclase isoform VI (ACVI) with HA-tag, from the truncated construct of Example 5-2 (murine) (UniProt Q01341). The assay is described as follows: cell-based or functional assay.
transgene murine adenylylcyclase isoform VI (ACVI) with HA-tag, from the truncated construct of Example 5-2 (murine), sequence (Q01341 whole entry, the tested form may be a part, canonical isoform): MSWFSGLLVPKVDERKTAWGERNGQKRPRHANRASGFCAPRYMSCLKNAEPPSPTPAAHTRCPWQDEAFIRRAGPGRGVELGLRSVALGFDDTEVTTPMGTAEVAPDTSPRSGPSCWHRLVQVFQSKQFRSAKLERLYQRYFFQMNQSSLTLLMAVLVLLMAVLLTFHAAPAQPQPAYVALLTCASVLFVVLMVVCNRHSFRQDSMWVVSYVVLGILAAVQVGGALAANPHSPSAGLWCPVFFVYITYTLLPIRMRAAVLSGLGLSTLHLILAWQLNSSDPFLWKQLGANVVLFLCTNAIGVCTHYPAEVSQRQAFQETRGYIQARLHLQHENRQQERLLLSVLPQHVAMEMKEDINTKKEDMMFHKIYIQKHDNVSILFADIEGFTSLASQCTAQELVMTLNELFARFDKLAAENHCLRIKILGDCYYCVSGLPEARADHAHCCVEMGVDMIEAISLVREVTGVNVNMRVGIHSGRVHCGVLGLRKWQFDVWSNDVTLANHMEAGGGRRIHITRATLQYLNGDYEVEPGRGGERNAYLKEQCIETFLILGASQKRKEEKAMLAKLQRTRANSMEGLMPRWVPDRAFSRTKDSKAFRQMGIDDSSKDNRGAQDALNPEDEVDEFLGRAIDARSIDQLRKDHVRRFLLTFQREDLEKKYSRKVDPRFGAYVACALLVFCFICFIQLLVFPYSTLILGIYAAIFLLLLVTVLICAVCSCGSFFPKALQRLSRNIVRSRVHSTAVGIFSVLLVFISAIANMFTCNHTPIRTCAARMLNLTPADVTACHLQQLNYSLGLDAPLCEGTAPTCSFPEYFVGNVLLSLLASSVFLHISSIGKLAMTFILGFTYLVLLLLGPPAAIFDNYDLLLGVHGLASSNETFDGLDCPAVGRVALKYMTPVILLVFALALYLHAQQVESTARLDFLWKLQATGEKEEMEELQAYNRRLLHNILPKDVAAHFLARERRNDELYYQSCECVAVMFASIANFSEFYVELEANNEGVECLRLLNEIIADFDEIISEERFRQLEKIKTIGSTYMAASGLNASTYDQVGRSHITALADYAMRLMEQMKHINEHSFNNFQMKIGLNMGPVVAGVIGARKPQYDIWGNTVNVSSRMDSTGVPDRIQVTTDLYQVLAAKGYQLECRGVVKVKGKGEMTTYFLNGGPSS

“Gs (stimulatory GTP-binding protein) of neonatal rat cardiac myocytes (from UniProt P63095 2-394)” showed a Net GTP gamma S-stimulated forskolin binding of 447 cpm.
